Measurements published in patent US20230303994.
Numbering of substitutions follows the chain as printed.

B1: trypsin variant SEQ ID NO: 86 (protein)
chain: IVGGYTCAANSIPYQVSLNSGSHRCGGSLINSQWVVSAAHCYKPRIQVRLGEHNIDVLEGNEQFINAAKIITHPNFNPNTLDNDIMLIKLSSPATLNSAVATVSLPTSCAAAGTECLISGWGNTSSSGSSMPSLLQCLKAPVLSDSSCKSSYPGQITGNMICVGFLEGGKDACQGDSGGPVVCNGQLQGIVSSGYGCAQKNKPGVYTKVCNYVNWIQQTIAAN
B2: trypsin variant SEQ ID NO: 89 (protein)
chain: B1 chain with D56H, A99H, S125A
B3: trypsin variant SEQ ID NO: 87 (protein)
chain: B1 chain with D56H, A99H
B4: trypsin variant SEQ ID NO: 88 (protein)
chain: B1 chain with D56H, A99H, A172S
B5: trypsin variant SEQ ID NO: 93 (protein)
chain: B1 chain with P44S, A99N, S125C, K170A
B6: trypsin variant SEQ ID NO: 91 (protein)
chain: B1 chain with D56H
B7: trypsin variant SEQ ID NO: 95 (protein)
chain: B1 chain with D56H, A99H, T107R, K170A
B8: trypsin variant SEQ ID NO: 92 (protein)
chain: B1 chain with D56H, S125C
B9: trypsin variant SEQ ID NO: 94 (protein)
chain: B1 chain with D56H, P78G, A99N, T107R, S125C, K170A
B10: trypsin variant SEQ ID NO: 90 (protein)
chain: B1 chain with D56H, A99H, S125A, A172S
B11: trypsin variant SEQ ID NO: 96 (protein)
chain: B1 chain with A99H, T107R, K170A
B12: trypsin variant SEQ ID NO: 11 (protein)
chain: B1 chain with P44S, P78G, A99N, T107R, S125K, M131Y

Protein | Activity PPI cleavage (pre-pro-human insulin) | Selectivity (pre-pro-human insulin) [%] | Purity Insulin Glargine (pre-pro-insulin glargine) [area %] | Yield (pre-pro-insulin glargine) [%] | desArg (pre-pro-insulin glargine) [area %] | desThr (pre-pro-insulin glargine) [area %]
B1 | yes | >90 | 79.3 | > 80 | 0.8 | 0.1
B2 | yes | >90 | 88.1 | > 90 | 0.5 | 1.2
B3 | yes | >90 | 83.8 | > 80 | 0.6 | 0.3
B4 | yes | >90 | 84.3 | > 90 | 0.7 | 1.9
B5 | yes | >90 | 71.3 | > 75 | 0.7 | 0.3
B6 | yes | >90 | 86.8 | > 90 | 1 | 0.3
B7 | yes | >90 | 90 | > 90 | 1 | 0.6
B8 | yes | >90 | 88.1 | > 90 | 0.9 | 0.6
B9 | yes | >90 | 85.2 | > 90 | 0.8 | 0.3
B10 | yes | >90 | 89.5 | > 90 | 0.9 | 0.2
B11 | yes | >90 | 78.7 | > 80 | 0.7 | 0.3
B12 | yes | >90 | 84.1 | > 90 | < 0.5 | 2.2
